In US20230416394A1:

Assays:
[1] = target: human CD39 protein (Octet assays) (human); assay: Octet, antibody on sensor, CD39 gradient
[2] = target: 6×His tagged human CD39 (human); assay: Biacore, antibody captured, 6×His human CD39 as analyte, 1:1 model
Chain of 6×His tagged human CD39 (human) (P49961 38-478): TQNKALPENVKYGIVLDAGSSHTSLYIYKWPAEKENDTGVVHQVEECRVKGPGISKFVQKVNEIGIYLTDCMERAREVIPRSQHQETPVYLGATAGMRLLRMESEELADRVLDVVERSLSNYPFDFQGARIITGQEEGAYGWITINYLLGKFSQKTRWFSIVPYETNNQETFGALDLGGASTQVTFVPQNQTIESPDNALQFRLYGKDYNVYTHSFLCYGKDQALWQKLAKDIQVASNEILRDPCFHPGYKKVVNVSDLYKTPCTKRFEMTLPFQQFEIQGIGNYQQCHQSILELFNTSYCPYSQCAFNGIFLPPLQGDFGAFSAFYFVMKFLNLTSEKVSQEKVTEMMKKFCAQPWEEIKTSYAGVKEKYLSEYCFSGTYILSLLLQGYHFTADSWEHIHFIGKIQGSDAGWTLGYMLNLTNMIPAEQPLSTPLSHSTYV

Chain of human CD39 protein (Octet assays) (human) (P49961 38-478): as above

B1: hu23.H5L5 (antibody, from a related filing, V domains shown)
VH: QVQLVQSGAEVKKPGASVKVSCKASGYNLKDTFLHWVRQAPGQGLEWMGRIDPANGNIKYDPKFQGRVTITADTSANTAYMELISLRSEDTAVYYCANSPYYYGSGYRIFDVWGQGTTVTVSS
VL: QIVLTQSPATLSLSPGERATLSCSAFSSVNYMHWYQQKPGQAPRLLIYTTSNLASGIPTRFSGSGSGTSYTLTISSLEPEDFAVYYCQQRSTYPFTFGQGTKLEIK
Kd [1]: 0.687 nM
koff [1]: 9.36e-05 s⁻¹
kon [1]: 136000 M⁻¹ s⁻¹
Kd [2]: 19.5 nM
koff [2]: 0.0016 s⁻¹
kon [2]: 82200 M⁻¹ s⁻¹
